One block for each molecule: values may come before it.
Tests used:
[1] = target: T1, iPGAM (Slr1945), strep-iPGAM, iPGAM-WT (Synechocystis sp. PCC 6803, UniProt P74507, INS467TKKGI/DEL468-484, form not given); assay: coupled enolase / pyruvate kinase / LDH assay, NADH decrease at […] nm; type: biochemical; conditions: 50 µM MnCl2; without PirC
T1 construct: gene gpmI; N-terminal strep-tag; expressed in E. coli Lemo21(DE3), Strep-Tactin purified; calculated 60 kDa; monomer by mass photometry

[2] = target: T2, iPGAM (Slr1945), strep-iPGAM, iPGAM-WT (Synechocystis sp. PCC 6803, UniProt P74507); assay: as above; type: biochemical; conditions: 50 µM MnCl2; without PirC
T2 construct: gene gpmI; N-terminal strep-tag; expressed in E. coli Lemo21(DE3), Strep-Tactin purified; calculated 60 kDa; monomer by mass photometry

[3] = target: strep-tagged iPGAM (2,3-bisphosphoglycerate-independent phosphoglycerate mutase, Slr1945) of Synechocystis sp. PCC 6803, wild type (Synechocystis sp. PCC 6803) (UniProt P74507)
[4] = target: strep-tagged iPGAM-ΔCT (Synechocystis iPGAM with the C-terminal segment deleted) (Synechocystis sp. PCC 6803) (UniProt P74507)
[5] = target: strep-tagged iPGAM-Δloop (Synechocystis iPGAM with the loop replaced by TKKGI) (Synechocystis sp. PCC 6803) (UniProt P74507)
[6] = target: strep-tagged iPGAM-ΔloopΔCT (Synechocystis iPGAM with the loop replaced by TKKGI and the C-terminal segment deleted) (Synechocystis sp. PCC 6803) (UniProt P74507)
[7] = target: strep-tagged PirC (Sll0944, PII-interacting regulator of carbon metabolism) (Synechocystis sp. PCC 6803) (UniProt P77971); assay: mass photometry; Refeyn OneMP; strep-iPGAM and strep-PirC alone (iPGAM 10 nM) and mixed at an iPGAM-PirC ratio of 1:3
[8] = target: strep-tagged iPGAM (2,3-bisphosphoglycerate-independent phosphoglycerate mutase, Slr1945) of Synechocystis sp. PCC 6803, wild type (Synechocystis sp. PCC 6803) (UniProt P74507); assay: as above
[9] = target: His-tagged PirC (Sll0944, PII-interacting regulator of carbon metabolism) (Synechocystis sp. PCC 6803) (UniProt P77971); assay: BLI; Octet K2; His-tagged PirC immobilised on a Ni2+-NTA sensor, strep-iPGAM variants as analytes in various concentrations
His-tagged PirC (Sll0944, PII-interacting regulator of carbon metabolism) (Synechocystis sp. PCC 6803), sequence (P77971 whole entry): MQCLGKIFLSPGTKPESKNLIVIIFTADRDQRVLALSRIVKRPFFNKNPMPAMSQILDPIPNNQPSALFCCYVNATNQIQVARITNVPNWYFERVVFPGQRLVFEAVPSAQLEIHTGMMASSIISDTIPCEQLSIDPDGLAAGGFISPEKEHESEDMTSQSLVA

purified protein = substrate: O=C(O)[C@H](O)COP(=O)(O)O; assay: purified protein; type: biochemical, Synechocystis sp. PCC 6803; conditions: 50 µM MnCl2; without PirC

Molecule: His-tagged PirC (Sll0944, PII-interacting regulator of carbon metabolism) (from UniProt P77971 1-164) (natural protein)
- IC50 of PirC on iPGAM activity, coupled enzyme assay at 0.75 mM 3-PGA (50 to 1,600 nM PirC) [3]: 120 nM
- IC50 of PirC on iPGAM activity, coupled enzyme assay at 0.75 mM 3-PGA (50 to 1,600 nM PirC) [4]: 1070 nM
- IC50 of PirC on iPGAM activity, coupled enzyme assay at 0.75 mM 3-PGA (50 to 1,600 nM PirC) [5]: 217 nM
- IC50 of PirC on iPGAM activity, coupled enzyme assay at 0.75 mM 3-PGA (50 to 1,600 nM PirC) [6]: 164 nM

Molecule: strep-tagged iPGAM-Δloop (Synechocystis iPGAM with the loop replaced by TKKGI) (from UniProt P74507 1-532) (enzyme)
- Kd [9]: 203 nM

Molecule: strep-tagged iPGAM-ΔloopΔCT (Synechocystis iPGAM with the loop replaced by TKKGI and the C-terminal segment deleted) (from UniProt P74507 1-532) (enzyme)
- Kd [9]: 233 nM

B1: strep-tagged iPGAM (2,3-bisphosphoglycerate-independent phosphoglycerate mutase, Slr1945) of Synechocystis sp. PCC 6803, wild type (enzyme)
chain: MAEAPIAPVVLVILDGWGYRPDTRANAIAQANTPIMDSLIAAYPNTLVNTSGKDVGLPKGQMGNSEVGHLNLGAGRVVPQELVRISDAIEDGTFFDNQALIEVCQRVRDRRGKLHLIGLCSDGGVHSHIDHLLGLIDLAKLQGISQLCIHAITDGRDTPTNEGAHFVQQIQAHLEKIGLGRIVSVSGRYYALDRDRRWDRVEKAYRVMTEDGVGDGRSAAQVIKDYYASDITDEFIPPTRIGAGAIASGDGVIFYNFRPDRARQLCYALVNPSFDGFPRERIQPLDFVTFTQYDPALPVVVAFEPQNLNNILGEIISRQGMKQFRTAETEKYPHVTYFFNGGLEQPFAGEDRELIQSPMVSTYDKAPQMSAKAVTDAVCRAMEKGIYSLVVVNYANPDMVGHTGKLKEAIQAIETVDLNLGRLLASAAKVGGTVLITADHGNAEYMSDESGNPWTAHTTNPVPFILVEGEGRKIPGHGGEVKLREGGKLADIAPTILDILQLPVPAEMTGKTLIDQPLVEIKANRTPVNLSR
- Kd [9]: 378 nM

B2: iPGAM (Slr1945), strep-iPGAM, iPGAM-WT (Synechocystis sp. PCC 6803 substr. Kazusa) (protein)
chain: B1 chain
notes: N-terminal strep-tag; expressed in E. coli Lemo21(DE3), Strep-Tactin purified; calculated 60 kDa; monomer by mass photometry
- Km (purified protein): 265 ± 13 µM
- Vmax (purified protein): 18.6 µmol/min/mg
- kcat (purified protein): 18.6 ± 0.3 s⁻¹
- kcat/Km (purified protein): 70200 ± 3590 M⁻¹ s⁻¹

B3: iPGAM (Slr1945), strep-iPGAM, iPGAM-WT (Synechocystis sp. PCC 6803 substr. Kazusa; DEL468-484/INS467TKKGI) (protein)
chain: MAEAPIAPVVLVILDGWGYRPDTRANAIAQANTPIMDSLIAAYPNTLVNTSGKDVGLPKGQMGNSEVGHLNLGAGRVVPQELVRISDAIEDGTFFDNQALIEVCQRVRDRRGKLHLIGLCSDGGVHSHIDHLLGLIDLAKLQGISQLCIHAITDGRDTPTNEGAHFVQQIQAHLEKIGLGRIVSVSGRYYALDRDRRWDRVEKAYRVMTEDGVGDGRSAAQVIKDYYASDITDEFIPPTRIGAGAIASGDGVIFYNFRPDRARQLCYALVNPSFDGFPRERIQPLDFVTFTQYDPALPVVVAFEPQNLNNILGEIISRQGMKQFRTAETEKYPHVTYFFNGGLEQPFAGEDRELIQSPMVSTYDKAPQMSAKAVTDAVCRAMEKGIYSLVVVNYANPDMVGHTGKLKEAIQAIETVDLNLGRLLASAAKVGGTVLITADHGNAEYMSDESGNPWTAHTTNPVPFILVTKKGIEGGKLADIAPTILDILQLPVPAEMTGKTLIDQPLVEIKANRTPVNLSR
notes: as for B2
- Km (purified protein): 1087 ± 141 µM
- Vmax (purified protein): 6.86 µmol/min/mg
- kcat (purified protein): 6.7 ± 0.4 s⁻¹
- kcat/Km (purified protein): 6190 ± 874 M⁻¹ s⁻¹

The remaining lines, values ahead:

- Km [1]: 547 ± 59 µM
- Km [2]: 242 ± 19 µM
Molecule: O=C(O)[C@H](O)COP(=O)(O)O [3-PGA]

- stoichiometry N [7]: 6
- stoichiometry N (PirC monomers per iPGAM) [8]: 3
Molecule: strep-tagged PirC (Sll0944, PII-interacting regulator of carbon metabolism) (from UniProt P77971 1-164) (natural protein)

- Kd [9]: 114 nM
Molecule: strep-tagged iPGAM-ΔCT (Synechocystis iPGAM with the C-terminal segment deleted) (from UniProt P74507 1-532) (enzyme)
